We go through four molecules from PMC3637846 (Nature, 2013).

Test [1] addresses CH505 transmitted/founder (T/F) Env gp140 (HIV-1 subtype C, CH505 (703010505) …, strain). Kind of test: SPR. For orientation: Surface plasmon resonance follows binding to a sensor surface in real time, without labels.
The target in test [2] is heterologous T/F Env C.1086 (HIV-1 subtype C, isolate 1086 (T/F), UniProt C6G099, strain). The test can be described thus: ELISA. In general terms: In an ELISA, binding on a coated surface is turned into a signal by an enzyme label.

Positions count from the first letter of the chain named.

B1: inferred intermediate antibody I1 (antibody, V domains shown)
V domain 1: QVQLQESGPGVVKSSETLSLTCTVSGGSMGGTYWSWLRLSPGKGLEWIGYIFHTGHTNYSPSLKGRVSISVDTSEDQFSLRLRSVTAADTAVYFCASLPRGQLVNAYFRNWGRGTLVSVTA
V domain 2: SYELTQPPSVSVSPGQTATITCSGDKVASKNVCWYQVKPGQSPEVVMYENYKRPSGIPDRFSGSKSGSTATLTIRGTQATDEADYYCQVWDSFSTFVFGSGTQVTV
In the case of B1, the binding result in test [1] is given as “binds”.

B2: CH103 (full-length IgG1 recombinant mAb) (antibody, V domains shown)
V domain 1: B1 V domain 1 with H56E, T115S
V domain 2: SYELTQPPSVSVSPGQTATITCSGASTNVCWYQVKPGQSPEVVIFENYKRPSGIPDRFSGSKSGSTATLTIRGTQAIDEADYYCQVWDSFSTFVFGSGTQVTV
Consider B2, for which the binding result in test [1] is on record as “binds”.

B3: CH104 (full-length IgG1 recombinant mAb) (antibody, V domains shown)
V domain 1: B1 V domain 1 with S60N, K64E
V domain 2: B1 V domain 2 with P54A
On to B3, for which, in test [1], the binding result was “binds”.

B4: CH103 unmutated common ancestor (UCA) mAb (antibody, V domains shown)
VH: QVQLQESGPGLVKPSETLSLTCTVSGGSISSYYWSWIRQPPGKGLEWIGYIYYSGSTNYNPSLKSRVTISVDTSKNQFSLKLSSVTAADTAVYYCASLPRGQLVNAYFDYWGQGTLVTVSS
VL: not shown
B4: the binding result in test [2] was “no binding”.
